Measured values: patent publication US20190038796

Molecular target: EGF-MMP (recombinant epidermal growth factor with N-terminal PLP reactive site AKT, polyhistidine tag and MMP cleavage site VPLSLYSG)
Sequence (chain, as listed by the source): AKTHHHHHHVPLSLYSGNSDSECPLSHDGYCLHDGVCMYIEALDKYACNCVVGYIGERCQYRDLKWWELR

B1: Recombinant, human pro-MMP-9 expressed in CHO cells, activated with amino-phenyl mercuric acetate (APMA) (protein)
chain: APRQRQSTLVLFPGDLRTNLTDRQLAEEYLYRYGYTRVAEMRGESKSLGPALLLLQKQLSLPETGELDSATLKAMRTPRCGVPDLGRFQTFEGDLKWHHHNITYWIQNYSEDLPRAVIDDAFARAFALWSAVTPLTFTRVYSRDADIVIQFGVAEHGDGYPFDGKDGLLAHAFPPGPGIQGDAHFDDDELWSLGKGVVVPTRFGNADGAACHFPFIFEGRSYSACTTDGRSDGLPWCSTTANYDTDDRFGFCPSERLYTQDGNADGKPCQFPFIFQGQSYSACTTDGRSDGYRWCATTANYDRDKLFGFCPTRADSTVMGGNSAGELCVFPFTFLGKEYSTCTSEGRGDGRLWCATTSNFDSDKKWGFCPDQGYSLFLVAAHEFGHALGLDHSSVPEALMYPMYRFTEGPPLHKDDVNGIRHLYGPRPEPEPRPPTTTTPQPTAPPTVCPTGPPTVHPSERPTAGPTGPPSAGPTGPPTAGPSTATTVPLSPVDDACNVNIFDAIAEIGNQLYLFKDGKYWRFSEGRGSRPQGPFLIADKWPALPRKLDSVFEERLSKKLFFFSGRQVWVYTGASVLGPRRLDKLGLGADVAQVTGALRSGRGKMLLFSGRRLWRFDVKAQMVDPRSASEVDRMFPGVPLDTHDVFQYREKAYFCQDRFYWRVSSRSELNQVDQVGYVTYDILQCPED
conversion to the cleaved product by integration of MALDI-TOF data: over 99% conversion to the cleaved product
molecular weight by MALDI-TOF after incubation with MMP-9 (cleavage): After 2 hours, the molecular weight decreased from 8.16 kDa to 6.64 kDa, in precise agreement with the theoretical molecular weight of cleaved EGFMMP (6.64 kDa)
